Test results from patent publication US20230074657A1.

Biological target: Tag1-LAG3 protein (UniProt P18627)
Assay: HTRF blocking assay (Cisbio kit): Tag1-LAG3 with Tag2-FGL1 and antibody

Tag1-LAG3 protein, sequence (P18627 23-450): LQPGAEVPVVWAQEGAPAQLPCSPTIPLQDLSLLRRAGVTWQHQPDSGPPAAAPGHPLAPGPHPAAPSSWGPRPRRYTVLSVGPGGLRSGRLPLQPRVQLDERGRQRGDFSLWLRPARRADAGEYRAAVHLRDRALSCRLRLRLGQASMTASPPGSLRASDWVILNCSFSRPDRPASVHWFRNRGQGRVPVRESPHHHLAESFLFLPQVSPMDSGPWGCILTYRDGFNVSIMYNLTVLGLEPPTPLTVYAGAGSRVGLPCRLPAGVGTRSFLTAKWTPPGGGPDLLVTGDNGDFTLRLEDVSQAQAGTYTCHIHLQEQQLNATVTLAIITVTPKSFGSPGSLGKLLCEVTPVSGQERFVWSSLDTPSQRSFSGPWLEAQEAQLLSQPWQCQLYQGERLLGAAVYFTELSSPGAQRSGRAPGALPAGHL

Work on Positive control (ab40465) (antibody) yielded an IC50 (read off the curve) of 2 µg/mL.
